Measurements from article PMC5389638 (Nucleic Acids Research, 2016).

Biological target: the molecule itself
Assay: AFM volume analysis

B1: 6His–Ver (natural protein, Drosophila, UniProt Q9VTZ2 1-214, looked up)
chain: MDFNQSFEDIESQLDNFVIRKNQQSEKSTGKCGPEVHDNVPLTISQIERATQDPENENVFITDDVHPIHFCTCIIYAFVTGNGTHNESFMKFMIDDGTGSLEASITKKPFNGRVISSLYSEASSLASSEAYKSIAVSMMRLLQVSMEYIDPTRISRGHSLFLRGRPNRFRGKMGLDAFQFFIDSGRSRNMEIGFVDYLTDWQRRHKTMQNTTNK
stoichiometry N: 2
